Blank lines part the entries; values can stand above or below the binder they belong to.
Experiments:
[1] = molecular target: T1, TIGIT (on TIGIT-transfected Jurkat cells) (UniProt Q495A1 22-244, limits assumed); experiment: flow cytometry, antibody binding to Jurkat TIGIT cells (MFI), fluorescent anti-human IgG Fc secondary
T1 construct: whole, on cells; also called Jurkat TIGIT; cell-associated TIGIT
T1 sequence (looked up): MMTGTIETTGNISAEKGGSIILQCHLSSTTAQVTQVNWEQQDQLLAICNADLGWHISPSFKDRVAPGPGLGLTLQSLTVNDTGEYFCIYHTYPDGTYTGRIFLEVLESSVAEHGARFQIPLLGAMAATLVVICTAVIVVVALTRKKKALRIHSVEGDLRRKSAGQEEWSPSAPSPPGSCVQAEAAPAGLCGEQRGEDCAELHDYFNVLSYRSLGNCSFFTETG
Experimental: (§1) 10⁵ cells (RKO, Jurkat TIGIT, and Jurkat LAG-3 for testing antibody binding to PD-L1, TIGIT, and LAG-3, respectively) per well were distributed in 0.1 ml medium to 96-well V-bottom plates. Supernatants were discarded after spinning down cells at 300 g, 5 min at room temperature. Cells were resuspended in […] of a serial dilution of antibodies and incubated for 1 h at room temperature. After incubation, cells were washed by adding 0.15 ml cell staining buffer (PBS containing 1% FBS and 0.1% NaN3) and centrifugation at 300 g, 5 min at room temperature. Supernatants were discarded and cells were washed one more time with 0.15 ml of staining buffer. Cells were subsequently resuspended in […] of secondary antibody (Alexa Fluor 647-conjugated AffiniPure Goat Anti-Human IgG, Fcγ Fragment Specific. Used at 1:500) and incubated at RT for 30 min. Cells were spun down after 0.15 ml cell staining buffer was added, resuspended in 0.12 ml of cell staining buffer, and analyzed by flow cytometry on a NovoCyte flow cytometer (Agilent).

[2] = molecular target: T1, TIGIT (on TIGIT-transfected Jurkat …); experiment: flow cytometry blocking assay: biotinylated CD155 binding to Jurkat TIGIT cells (MFI), streptavidin detection
Experimental: (§2) 10⁵ cells (RKO for PD-1/PD-L1 blocking, Raji for MHC-II/LAG-3 blocking, and Jurkat TIGIT for CD155/TIGIT blocking) were distributed per well in 0.1 ml medium to 96-well V-bottom plate in duplicate. Supernatants were discarded after spinning down cells at 300 g, 5 min at room temperature. […] After incubation, cells were washed by adding 0.15 ml cell staining buffer (PBS containing 1% FBS and 0.1% NaN3) and centrifugation at 300 g, 5 min at room temperature. Supernatants were discarded and cells were washed one more time with 0.15 ml of staining buffer. Cells were subsequently resuspended in […] of 1:500 Streptavidin-PE and incubated at RT for 30 min. Cells were spun down after 0.15 ml cell staining buffer was added, resuspended in 0.12 ml of cell staining buffer, and analyzed by flow cytometry on a NovoCyte flow cytometer (Agilent).

[3] = molecular target: T2, PD-L1 (endogenous, on RKO colon cancer cells) (human, UniProt Q9NZQ7 19-290); experiment: flow cytometry, antibody binding to PDL1+ RKO cells (MFI)
T2 construct: whole, on cells; also called cell-associated PD-L1; CD274
Experimental: as §1

[4] = molecular target: T1, TIGIT (on TIGIT-transfected Jurkat …); experiment: competition flow cytometry: blocking of biotinylated CD155 binding to Jurkat TIGIT cells
Experimental: as §2

[5] = molecular target: T3, LAG-3 (on LAG-3-transfected Jurkat cells) (UniProt P18627 23-525, limits assumed); experiment: flow cytometry, antibody binding to Jurkat LAG-3 cells (MFI)
T3 construct: whole, on cells; also called Jurkat LAG-3; cell-associated LAG-3
T3 sequence (looked up): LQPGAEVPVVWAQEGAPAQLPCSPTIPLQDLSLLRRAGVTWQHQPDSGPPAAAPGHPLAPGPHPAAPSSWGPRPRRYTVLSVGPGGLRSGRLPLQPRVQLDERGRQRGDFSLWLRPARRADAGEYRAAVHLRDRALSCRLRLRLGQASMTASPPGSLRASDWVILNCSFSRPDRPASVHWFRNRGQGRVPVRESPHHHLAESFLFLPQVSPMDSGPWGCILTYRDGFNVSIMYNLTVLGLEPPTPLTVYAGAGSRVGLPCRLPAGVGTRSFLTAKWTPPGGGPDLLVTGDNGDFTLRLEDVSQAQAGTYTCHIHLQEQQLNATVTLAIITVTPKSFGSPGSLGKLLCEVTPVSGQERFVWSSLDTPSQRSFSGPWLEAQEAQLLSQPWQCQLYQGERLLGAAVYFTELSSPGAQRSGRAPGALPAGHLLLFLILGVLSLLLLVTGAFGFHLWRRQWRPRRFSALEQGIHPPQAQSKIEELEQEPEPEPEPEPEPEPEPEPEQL
Experimental: as §1

T2 sequence (Q9NZQ7 19-290): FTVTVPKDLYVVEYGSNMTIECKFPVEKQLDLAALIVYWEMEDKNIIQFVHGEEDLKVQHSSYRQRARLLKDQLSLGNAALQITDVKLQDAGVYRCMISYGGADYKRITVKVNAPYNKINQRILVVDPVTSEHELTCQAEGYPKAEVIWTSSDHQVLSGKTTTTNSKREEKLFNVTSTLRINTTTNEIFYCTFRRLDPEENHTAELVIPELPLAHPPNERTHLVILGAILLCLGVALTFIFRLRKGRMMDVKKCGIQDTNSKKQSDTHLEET

EC50 [1]: 5.64 nM | IC50 [2]: 2.65 nM | binding result [3]: no binding (tested: 100 nM) | IC50 [4]: ~2.5 nM
B1: parental anti-TIGIT antibody (antibody, human IgG1, V domains shown)
VH: EVQLVESGGGLVQPGGSLRLSCAASSRTFSRYAMGWFRRAPGKEREFVASISWSGGGLEYAESVKGRFTISRDGSKNTVYLQMNSLAAEDTAVYYCAADPWGSLVNGAVRYEYWGQGTLVTVSS
notes: also called αTIGIT; ABT's parental anti-TIGIT antibody

EC50 [1]: 1.59 nM | binding result [5]: no binding (tested: 100 nM) | IC50 [2]: 0.37 nM | IC50 [4]: ~0.3 nM
B2: PD-L1/TIGIT BsAb (bispecific antibody, V domains shown)
V domain 1: B1 VH
V domain 2: not shown
notes: also called PD-L1/TIGIT bispecific antibody; TIGIT/PD-L1 bispecific antibody; not shown: linker peptide

EC50 [1]: 0.31 nM | IC50 [2]: 0.29 nM | IC50 [4]: ~0.3 nM
B3: tiragolumab (antibody, V domains shown)
VH: EVQLQQSGPGLVKPSQTLSLTCAISGDSVSSNSAAWNWIRQSPSRGLEWLGKTYYRFKWYSDYAVSVKGRITINPDTSKNQFSLQLNSVTPEDTAVFYCTRESTTYDLLAGPFDYWGQGTLVTVSS
VL: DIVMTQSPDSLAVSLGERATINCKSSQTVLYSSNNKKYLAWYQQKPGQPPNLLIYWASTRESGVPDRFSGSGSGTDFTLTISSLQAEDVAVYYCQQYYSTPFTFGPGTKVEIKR

Source: patent publication US20250270318A1 (AB THERAPEUTICS, published 2025)
